# Test results as given in PMC7093966.
# Target: FITC-Aβ42 (UniProt P05067)
# Assay: solid-phase fluorescence binding assay (FITC-peptide on coated plate); black 96-well plates coated with 50 μg/mL rat-tail collagen-I or 10% BSA; 1 μM FITC-Aβ42 in RPMI with or without 200 μg/mL HDL (total, apoE-depleted or apoE-enriched) or BSA; 24 h at 37 °C, 5% CO2; PBS washes; excitation 490 nm, emission 520 nm
# FITC-Aβ42, sequence (P05067 672-713): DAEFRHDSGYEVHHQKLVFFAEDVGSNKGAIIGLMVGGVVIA
# High density lipoprotein (HDL), density 1.063-1.21 g/mL, sequence (P02649 whole entry, looked up): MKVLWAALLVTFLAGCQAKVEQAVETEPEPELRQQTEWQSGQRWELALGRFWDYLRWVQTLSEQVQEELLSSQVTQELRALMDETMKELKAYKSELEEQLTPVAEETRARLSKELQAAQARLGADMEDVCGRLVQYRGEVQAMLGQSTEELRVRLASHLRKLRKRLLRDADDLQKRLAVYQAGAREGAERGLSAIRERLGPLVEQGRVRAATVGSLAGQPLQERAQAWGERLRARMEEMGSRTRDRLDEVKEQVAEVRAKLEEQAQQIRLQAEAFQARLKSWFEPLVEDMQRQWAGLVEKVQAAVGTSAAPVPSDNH
# High density lipoprotein (HDL), density 1.063-1.21 g/mL, sequence (P02652 whole entry, looked up): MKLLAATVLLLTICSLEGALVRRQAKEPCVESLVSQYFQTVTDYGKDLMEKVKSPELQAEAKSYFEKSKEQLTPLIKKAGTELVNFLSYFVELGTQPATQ
# High density lipoprotein (HDL), density 1.063-1.21 g/mL, sequence (P02647 whole entry, looked up): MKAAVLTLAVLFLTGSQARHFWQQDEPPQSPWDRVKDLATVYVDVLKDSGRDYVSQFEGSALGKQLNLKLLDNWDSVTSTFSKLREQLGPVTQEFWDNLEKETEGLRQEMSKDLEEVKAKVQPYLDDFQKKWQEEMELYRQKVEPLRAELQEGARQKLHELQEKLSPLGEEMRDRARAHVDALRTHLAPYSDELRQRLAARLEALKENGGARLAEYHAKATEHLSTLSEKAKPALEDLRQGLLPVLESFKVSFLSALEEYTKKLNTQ
substance,measurement,value
"High density lipoprotein (HDL), density 1.063-1.21 g/mL (from UniProt P02647 19-267; P02652 19-100; P02649 19-317) (complex)",fold reduction of Aβ42 binding to BSA,11.8 fold
same,fold reduction of Aβ42 binding to collagen-I,7 fold
